Patent US20200231654A1 (published 2020)
Residue numbers refer to the chain shown, from its start. Where two headings read alike, the source gives them in different places.

What was measured:
[1] = biological target: active mMMP-9(cat)_FLAG_Avi (UniProt P41245 108-450); assay: enzyme inhibition; substrate peptide
[2] = biological target: T1, Chymase human recombinant expressed in Pichia pastoris (human, UniProt P23946 22-247); assay: substrate peptide degradation inhibition
T1 chain: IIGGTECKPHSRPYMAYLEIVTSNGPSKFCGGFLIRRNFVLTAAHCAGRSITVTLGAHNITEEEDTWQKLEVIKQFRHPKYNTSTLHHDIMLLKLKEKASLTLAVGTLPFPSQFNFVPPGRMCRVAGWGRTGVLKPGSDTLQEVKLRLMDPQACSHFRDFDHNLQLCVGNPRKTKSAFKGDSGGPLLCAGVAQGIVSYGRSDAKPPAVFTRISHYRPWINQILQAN

active hMMP-9(cat)_His6 [3] = biological target: T2, active hMMP-9(cat)_His6 (UniProt P14780 107-449); assay: enzyme inhibition; substrate peptide
T2 sequence (P14780 107-449): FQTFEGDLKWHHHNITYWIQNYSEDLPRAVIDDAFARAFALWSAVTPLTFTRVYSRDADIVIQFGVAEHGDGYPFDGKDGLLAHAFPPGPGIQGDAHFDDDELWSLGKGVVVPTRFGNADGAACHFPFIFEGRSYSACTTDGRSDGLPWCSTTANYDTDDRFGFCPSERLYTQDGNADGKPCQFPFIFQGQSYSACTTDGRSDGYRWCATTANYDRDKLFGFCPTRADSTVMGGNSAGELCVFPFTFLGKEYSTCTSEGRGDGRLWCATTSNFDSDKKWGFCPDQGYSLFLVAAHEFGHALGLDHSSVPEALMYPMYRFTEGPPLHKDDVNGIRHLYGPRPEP

active hMMP-9(cat)_D185A = active hMMP-9(cat)_D185A (UniProt P14780 107-449); assay: substrate peptide degradation inhibition
Chain of active hMMP-9(cat)_D185A (P14780 107-449 D185A): as the sequence (P14780 107-449) above, with D79A counted along it

active hMMP-9(cat)_F110A = active hMMP-9(cat)_F110A (UniProt P14780 107-449); assay: substrate peptide degradation inhibition
Chain of active hMMP-9(cat)_F110A (P14780 107-449 F110A): as the sequence (P14780 107-449) above, with F4A counted along it

active hMMP-9(cat)_F192A = active hMMP-9(cat)_F192A (UniProt P14780 107-449); assay: substrate peptide degradation inhibition
Chain of active hMMP-9(cat)_F192A (P14780 107-449 F192A): as the sequence (P14780 107-449) above, with F86A counted along it

active hMMP-9(cat)_L187A = active hMMP-9(cat)_L187A (UniProt P14780 107-449); assay: substrate peptide degradation inhibition
Chain of active hMMP-9(cat)_L187A (P14780 107-449 L187A): as the sequence (P14780 107-449) above, with L81A counted along it

active hMMP-9(cat)_P193A = active hMMP-9(cat)_P193A (UniProt P14780 107-449); assay: substrate peptide degradation inhibition
Chain of active hMMP-9(cat)_P193A (P14780 107-449 P193A): as the sequence (P14780 107-449) above, with P87A counted along it

active hMMP-9(cat)_Q199G = active hMMP-9(cat)_Q199G (UniProt P14780 107-449); assay: substrate peptide degradation inhibition
Chain of active hMMP-9(cat)_Q199G (P14780 107-449 Q199G): as the sequence (P14780 107-449) above, with Q93G counted along it

active hMMP-9(cat)_Y179A = active hMMP-9(cat)_Y179A (UniProt P14780 107-449); assay: substrate peptide degradation inhibition
Chain of active hMMP-9(cat)_Y179A (P14780 107-449 Y179A): as the sequence (P14780 107-449) above, with Y73A counted along it

active hMMP-9(cat)_Y393A = active hMMP-9(cat)_Y393A (UniProt P14780 107-449); assay: substrate peptide enzyme inhibition
Chain of active hMMP-9(cat)_Y393A (P14780 107-449 Y393A): as the sequence (P14780 107-449) above, with Y287A counted along it

active hMMP-9(cat)_L397A = active hMMP-9(cat)_L397A (UniProt P14780 107-449); assay: substrate peptide enzyme inhibition
Chain of active hMMP-9(cat)_L397A (P14780 107-449 L397A): as the sequence (P14780 107-449) above, with L291A counted along it

active hMMP-9(cat)_Y420A = active hMMP-9(cat)_Y420A (UniProt P14780 107-449); assay: substrate peptide enzyme inhibition
Chain of active hMMP-9(cat)_Y420A (P14780 107-449 Y420A): as the sequence (P14780 107-449) above, with Y314A counted along it

active hMMP-9(cat)_R424T = active hMMP-9(cat)_R424T (UniProt P14780 107-449); assay: substrate peptide enzyme inhibition
Chain of active hMMP-9(cat)_R424T (P14780 107-449 R424T): as the sequence (P14780 107-449) above, with R318T counted along it

active hMMP-9(cat)_V398A = active hMMP-9(cat)_V398A (UniProt P14780 107-449); assay: substrate peptide enzyme inhibition
Chain of active hMMP-9(cat)_V398A (P14780 107-449 V398A): as the sequence (P14780 107-449) above, with V292A counted along it

active hMMP-9(cat)_M422I = active hMMP-9(cat)_M422I (UniProt P14780 107-449); assay: substrate peptide enzyme inhibition
Chain of active hMMP-9(cat)_M422I (P14780 107-449 M422I): as the sequence (P14780 107-449) above, with M316I counted along it

active hMMP-9(cat)_Y423A = active hMMP-9(cat)_Y423A (UniProt P14780 107-449); assay: substrate peptide enzyme inhibition
Chain of active hMMP-9(cat)_Y423A (P14780 107-449 Y423A): as the sequence (P14780 107-449) above, with Y317A counted along it

active hMMP-9(cat)_His6 [4] = biological target: T2, active hMMP-9(cat)_His6; assay: enzyme inhibition; substrate peptide; remark: listed apart in the source

Chain of active mMMP-9(cat)_FLAG_Avi (P41245 other isoform, or with tags, fused parts or gaps): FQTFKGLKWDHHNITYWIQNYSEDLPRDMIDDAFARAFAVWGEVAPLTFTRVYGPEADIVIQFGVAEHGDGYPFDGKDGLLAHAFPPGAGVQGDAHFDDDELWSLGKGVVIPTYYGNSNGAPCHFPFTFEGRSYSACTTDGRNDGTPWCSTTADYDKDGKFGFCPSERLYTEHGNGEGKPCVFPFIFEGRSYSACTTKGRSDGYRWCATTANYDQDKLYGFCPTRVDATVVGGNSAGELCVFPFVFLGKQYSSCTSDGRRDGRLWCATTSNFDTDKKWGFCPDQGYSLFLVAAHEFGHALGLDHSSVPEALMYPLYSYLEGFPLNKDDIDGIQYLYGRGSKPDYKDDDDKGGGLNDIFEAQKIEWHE

B1: active MMP-9-binding peptide M91004 (designed binder)
chain: GSGMKETAAAKFERQHMDSPDLGTDDDDKAMADIGSANSDPQFGLFSKYRTPNCRQRKGPSCQMAFQPVCGSDMSTYANECTLCMKIREGGHNIKIIRNGPCGASAAA
IC50 [1]: 7.1 nM | IC50 [2]: > 1000 nM

B2: active MMP-9-binding peptide M91010 (designed binder)
chain: B1 chain with Q56K, R57V, K58G, G59E, S61A, A65S, Q67N
IC50 [1]: 5 nM | IC50 [2]: > 1000 nM

B3: active MMP-9-binding peptide M91012 (designed binder)
chain: B1 chain with Q56V, K58G, A65S, Q67N
IC50 [1]: 7.8 nM | IC50 [2]: > 1000 nM

B4: active MMP-9-binding peptide M91002 (designed binder)
chain: B1 chain with Q56T, R57G, K58R, S61A, A65G
IC50 [1]: 5.1 nM | IC50 [2]: > 1000 nM | IC50 (active hMMP-9(cat)_His6 [3]): 5 nM

B5: active MMP-9-binding peptide M91005 (designed binder)
chain: B1 chain with Q56K, K58G, A65S, F66Y, Q67N
IC50 (active hMMP-9(cat)_D185A): 29 nM | IC50 (active hMMP-9(cat)_F110A): 69 nM | IC50 (active hMMP-9(cat)_F192A): > 1000 nM | IC50 (active hMMP-9(cat)_L187A): 120 nM | IC50 (active hMMP-9(cat)_P193A): 13 nM | IC50 (active hMMP-9(cat)_Q199G): 40 nM | IC50 (active hMMP-9(cat)_Y179A): 55 nM | IC50 [1]: 8.4 nM | IC50 [2]: > 1000 nM | IC50 (active hMMP-9(cat)_Y393A): 48 nM | IC50 (active hMMP-9(cat)_L397A): 37 nM | IC50 (active hMMP-9(cat)_Y420A): 54 nM | IC50 (active hMMP-9(cat)_R424T): 31 nM | IC50 (active hMMP-9(cat)_V398A): 39 nM | IC50 (active hMMP-9(cat)_M422I): 45 nM | IC50 (active hMMP-9(cat)_Y423A): 230 nM | IC50 (active hMMP-9(cat)_His6 [4]): 1.1 nM

B6: active MMP-9-binding peptide M91011 (designed binder)
chain: B1 chain with R55M, Q56M, R57Y, G59Y, P60A, S61Q, Q63S, M64H, A65K, F66S
IC50 (active hMMP-9(cat)_D185A): 310 nM | IC50 (active hMMP-9(cat)_F110A): 7.3 nM | IC50 (active hMMP-9(cat)_F192A): 83 nM | IC50 (active hMMP-9(cat)_P193A): 110 nM | IC50 (active hMMP-9(cat)_Q199G): 22 nM | IC50 (active hMMP-9(cat)_Y179A): 81 nM | IC50 [1]: 21 nM | IC50 [2]: > 1000 nM | IC50 (active hMMP-9(cat)_Y393A): > 950 nM | IC50 (active hMMP-9(cat)_L397A): 57 nM | IC50 (active hMMP-9(cat)_Y420A): 33 nM | IC50 (active hMMP-9(cat)_R424T): 45 nM | IC50 (active hMMP-9(cat)_V398A): 79 nM | IC50 (active hMMP-9(cat)_M422I): 43 nM | IC50 (active hMMP-9(cat)_Y423A): > 330 nM

B7: active MMP-9-binding peptide M91001 (designed binder)
chain: B1 chain with R55Q, Q56R, R57G, K58I, A65S, F66Y, Q67K
IC50 [1]: 4.1 nM | IC50 [2]: > 1000 nM

B8: active MMP-9-binding peptide M91014 (designed binder)
chain: GSGMKETAAAKFERQHMDSPDLGTDDDDKAMADIGSANSDPQFGLFSKYRTPNCVMYKYAQCSHKYKPVCGSDMSTYANECTLCMKIREGGHNIKIIRNGPCGASAAA
IC50 [1]: 9.2 nM | IC50 [2]: > 1000 nM
